Source: patent publication US20060121047A1, “Use of hmgb polypetides for increasing immune responses” (priority 2002, published 2006)
Marks after values point to notes of the source that are not given here.

What was measured:
[1] = tested on: D-galactosamine-sensitized Balb/c mice; assay: Serum cytokine levels in D-galactosamine-sensitized Balb/c mice; assay type: in vivo; settings: 1 mg/mouse i.p. plus D-gal, 7 hours
Protocol: To further assess the lethality of the HMGB1 B box protein in vivo the HMGB1 B box was again administered to D-galactosamine-sensitized Balb/c mice. Mice (3 per group) received D-gal (20 mg/mouse) plus B box or vector (1 mg/mouse) intraperitoneally for 7 hours and were then sacrificed by decapitation. Blood was collected, and organs (liver, heart, kidney and lung) were harvested and fixed in 10% formaldehyde. Tissue sections were prepared with hematoxylin and eosin staining for histological evaluation (Criterion Inc., Vancouver, Canada). […] In FIG. 4J, hepatocyte dropouts are seen surrounded by accumulated polymorphonuclear leukocytes. The arrows in FIG. 4J point to the sites of polymorphonuclear accumulation (dotted) or apoptotic hepatocytes (solid).

[2] = tested on: Murine macrophage-like RAW 264.7 cells; assay: TNF release from RAW 264.7 cells (L929 cytotoxicity bioassay); assay type: cell-based; settings: for TNF release, dose dependence: B box 0-10 μg/ml, 8 hours (FIG. 2A)
Protocol: (§1) Murine macrophage-like RAW 264.7 cells (American Type Culture Collection, Rockville, Md.) were cultured in RPMI 1640 medium (Life Technologies, Grand Island N.Y.) supplemented with 10% fetal bovine serum (Gemini, Catabasas, Calif.), penicillin and streptomycin (Life Technologies) and were used at 90% confluence in serum-free Opti-MEM I medium (Life Technologies, Grand Island, N.Y.). […] Polymyxin B was not used in experiments of synthetic peptide studies.
TNF release was measured by a standard murine fibroblast L929 (ATCC, American Type Culture Collection, Rockville, Md.) cytotoxicity bioassay (Bianchi et al., Journal of Experimental Medicine 183:927-936, 1996) with the minimum detectable concentration of 30 pg/ml. Recombinant mouse TNF was obtained from R&D system Inc., (Minneapolis, MN). Murine fibroblast L929 cells (ATCC) were cultured in DMEM (Life Technologies, Grand Island, N.Y.) supplemented with 10% fetal bovine serum (Gemini, Catabasas, Calif.), penicillin (50 units/ml) and streptomycin (50 μg/ml) (Life Technologies) in a humidified incubator with 5% CO2.
The effect of the mutants on TNF release from Murine macrophage-like RAW 264.7 cells (ATCC) was carried out as follows. RAW 264.7 cells were cultured in RPMI 1640 medium (Life Technologies, Grand Island N.Y.) supplemented with 10% fetal bovine serum (Gemini, Catabasas, Calif.), penicillin and streptomycin (Life Technologies). Polymyxin (Sigma, St. Louis, Mo.) was added at 100 units/ml to suppress the activity of any contaminating LPS. Cells were incubated with 1 μg/ml of full length (wild-type) HMGB1 and each HMGB1 mutant protein in Opti-MEM I medium for 8 hours, and conditioned supernatants (containing TNF which had been released from the cells) were collected and TNF released from the cells was measured by a standard murine fibroblast L929 (ATCC) cytotoxicity bioassay (Bianchi et al., supra) with the minimum detectable concentration of 30 pg/ml. Recombinant mouse TNF was obtained from R & D Systems Inc., (Minneapolis, Minn.) and used as control in these experiments. Data in FIG. 1 are all presented as mean+SEM unless otherwise indicated. (=6−10).
(§2) To further examine the effect of HMGB1 B box on cytokine production, varying amounts of HMGB1 B box were evaluated for the effects on TNF, IL-1B, and IL-6 production in murine macrophage-like RAW 264.7 cells. Conditioned media were harvested and measured for TNF, IL-1β and IL-6 levels. TNF levels were measured as described herein, and IL-1β and IL-6 levels were measured using the mouse IL-1β and IL-6 enzyme-linked immunosorbent assay (ELISA) kits (R&D System Inc., Minneapolis, 1) and N>5 for all experiments.
The kinetics of B box-induced TNF release was also examined. TNF release and TNF mRNA expression was measured in RAW 264.7 cells induced by B box polypeptide or GST tag polypeptide only used as a control (vector) (10 μg/ml) for 0 to 48 hours. Supernatants were analyzed for TNF protein levels by an L929 cytotoxicity assay (N=3-5) as described herein. For mRNA measurement, cells were plated in 100 mm plate and treated in Opti-MEM I medium containing B box polypeptide or the vector alone for 0, 4, 8, or 24 hours, as indicated in FIG. 2D. The vector only sample was assayed at the 4 hour time point. Cells were scraped off the plate and total RNA was isolated by RNAzol B method in accordance with the manufacturer's instructions (Tel-Test “B”, Inc., Friendswood, Tex.). TNF (287 bp) was measured by RNase protection assay (Ambion, Austin, Tex.). Equal loading and the integrity of RNA was verified by ethidium bromide staining of the RNA sample on agarose-formaldehyde gel. […] TNF mRNA expression was maximal at 4 hours and decreased at 8 and 24 hours. […] A similar study was carried out measuring TNF protein released from RAW 264.7 cells 0, 4, 8, 24, 32 or 48 hours after administration of B box or vector only (GST tag), using the L929 cytotoxicity assay described herein. […] Data are representative of three separate experiments. […]

[3] = tested on: D-galactosamine-sensitized Balb/c mice; assay: Toxicity (survival) in D-galactosamine-sensitized Balb/c mice; assay type: in vivo; settings: for Alive/total: survival monitored up to 7 days
Text: Male 6-8 week old Balb/c and C3H/HeJ mice were purchased from Harlen Sprague-Dawley (Indianapolis, Ind.) and were allowed to acclimate for 7 days before use in experiments. All animals were housed in the North Shore University Hospital Animal Facility under standard temperature, and a light and dark cycle.
The D-galactosamine-sensitized model has been described previously (Galanos et al., Proc Natl. Acad. Sci. USA 76: 5939-5943, 1979; and Lehmann et al., J. Exp. Med. 165: 657663, 1997). Mice were injected intraperitoneally with 20 mg D-galactosamine-HCL (Sigma)/mouse (in 200 μl PBS) and 0.1 or 1 mg of either HMGB1 B box or vector protein (in 200 μl PBS).
To investigate whether the HMGB1 B box has cytokine activity in vivo, we administered HMGB1 B box protein to unanesthetized Balb/c mice sensitized with D-galactosamine (D-gal), a model that is widely used to study cytokine toxicity (Galanos et al., supra). Briefly, mice (20-25 gram, male, Harlan Sprague-Dawley, Indianapolis, IN) were intraperitoneally injected with D-gal (20 mg) (Sigma) and B box (0.1 mg/ml/mouse or 1 mg/ml/mouse) or GST tag (vector; 0.1 mg/ml/mouse or 1 mg/ml/mouse), as indicated in Table 1. […]

RAW 264.7 cells = assay: IL-6 release from RAW 264.7 cells (ELISA); assay type: cell-based, murine; settings: B box 0-10 μg/ml, 8 hours (FIG. 2C)
Protocol: as §1, §2

B1: B box: Recombinant GST-system human HMGB1 mutant containing only the B box, 74 amino acids, SEQ ID NO: 20 (protein, listed as Homo sapiens)
chain: FKDPNAPKRLPSAFFLFCSEYRPKIKGEHPGLSIGDVAKKLGEMWNNTAADDKQPYEKKAAKLKEKYEKDIAAY
modifications: GST system
- serum levels of IL-1β [1]: 15+3 pg/ml
- serum levels of IL-6 [1]: 315+93 pg/ml
- TNF release ([2]; 1 μg/ml protein, 8 hours, RAW 264.7 cells (FIG. 1)): potent activator of monocyte TNF release
- time of maximum TNF protein release ([2]; 10 μg/ml): ≤ 8 h
- TNF protein expression/release versus medium only ([2]; 10 μg/ml, 0 to 48 hours): stimulated TNF protein expression
- TNF release, dose dependence [2]: increased with increased amounts of B box
- TNF release, dose dependence ([2]; listed as HMGB1 B box): dose-dependently stimulated release
- Alive/total ([3]; 0.1 mg/mouse i.p. with D-gal 20 mg): 6/6
- Alive/total ([3]; 1 mg/mouse i.p. with D-gal 20 mg): 2/8*
- lethality ([3]; 0.1 or 1 mg/mouse i.p.): lethal to D-galactosamine-sensitized mice in a dose-dependent manner
- time of death ([3]; instances in which death occurred): ≤ 12 h
- late deaths among survivors ([3]; survivors followed for 2 weeks): no later deaths from B box toxicity were observed
- IL-6 release, dose dependence (RAW 264.7 cells): increased with increased amounts of B box
- IL-6 release, dose dependence (RAW 264.7 cells; listed as HMGB1 B box): dose-dependently stimulated release
